Results: patent US8703143

Assays:
[1] = molecular target: human plasma fibronectin (human) (UniProt P02751); test: ELISA on coated antigen, background subtracted
[2] = molecular target: large isoform of tenascin-C (UniProt P24821); test: ELISA on coated antigen, background subtracted
Chain of large isoform of tenascin-C (P24821 23-2201): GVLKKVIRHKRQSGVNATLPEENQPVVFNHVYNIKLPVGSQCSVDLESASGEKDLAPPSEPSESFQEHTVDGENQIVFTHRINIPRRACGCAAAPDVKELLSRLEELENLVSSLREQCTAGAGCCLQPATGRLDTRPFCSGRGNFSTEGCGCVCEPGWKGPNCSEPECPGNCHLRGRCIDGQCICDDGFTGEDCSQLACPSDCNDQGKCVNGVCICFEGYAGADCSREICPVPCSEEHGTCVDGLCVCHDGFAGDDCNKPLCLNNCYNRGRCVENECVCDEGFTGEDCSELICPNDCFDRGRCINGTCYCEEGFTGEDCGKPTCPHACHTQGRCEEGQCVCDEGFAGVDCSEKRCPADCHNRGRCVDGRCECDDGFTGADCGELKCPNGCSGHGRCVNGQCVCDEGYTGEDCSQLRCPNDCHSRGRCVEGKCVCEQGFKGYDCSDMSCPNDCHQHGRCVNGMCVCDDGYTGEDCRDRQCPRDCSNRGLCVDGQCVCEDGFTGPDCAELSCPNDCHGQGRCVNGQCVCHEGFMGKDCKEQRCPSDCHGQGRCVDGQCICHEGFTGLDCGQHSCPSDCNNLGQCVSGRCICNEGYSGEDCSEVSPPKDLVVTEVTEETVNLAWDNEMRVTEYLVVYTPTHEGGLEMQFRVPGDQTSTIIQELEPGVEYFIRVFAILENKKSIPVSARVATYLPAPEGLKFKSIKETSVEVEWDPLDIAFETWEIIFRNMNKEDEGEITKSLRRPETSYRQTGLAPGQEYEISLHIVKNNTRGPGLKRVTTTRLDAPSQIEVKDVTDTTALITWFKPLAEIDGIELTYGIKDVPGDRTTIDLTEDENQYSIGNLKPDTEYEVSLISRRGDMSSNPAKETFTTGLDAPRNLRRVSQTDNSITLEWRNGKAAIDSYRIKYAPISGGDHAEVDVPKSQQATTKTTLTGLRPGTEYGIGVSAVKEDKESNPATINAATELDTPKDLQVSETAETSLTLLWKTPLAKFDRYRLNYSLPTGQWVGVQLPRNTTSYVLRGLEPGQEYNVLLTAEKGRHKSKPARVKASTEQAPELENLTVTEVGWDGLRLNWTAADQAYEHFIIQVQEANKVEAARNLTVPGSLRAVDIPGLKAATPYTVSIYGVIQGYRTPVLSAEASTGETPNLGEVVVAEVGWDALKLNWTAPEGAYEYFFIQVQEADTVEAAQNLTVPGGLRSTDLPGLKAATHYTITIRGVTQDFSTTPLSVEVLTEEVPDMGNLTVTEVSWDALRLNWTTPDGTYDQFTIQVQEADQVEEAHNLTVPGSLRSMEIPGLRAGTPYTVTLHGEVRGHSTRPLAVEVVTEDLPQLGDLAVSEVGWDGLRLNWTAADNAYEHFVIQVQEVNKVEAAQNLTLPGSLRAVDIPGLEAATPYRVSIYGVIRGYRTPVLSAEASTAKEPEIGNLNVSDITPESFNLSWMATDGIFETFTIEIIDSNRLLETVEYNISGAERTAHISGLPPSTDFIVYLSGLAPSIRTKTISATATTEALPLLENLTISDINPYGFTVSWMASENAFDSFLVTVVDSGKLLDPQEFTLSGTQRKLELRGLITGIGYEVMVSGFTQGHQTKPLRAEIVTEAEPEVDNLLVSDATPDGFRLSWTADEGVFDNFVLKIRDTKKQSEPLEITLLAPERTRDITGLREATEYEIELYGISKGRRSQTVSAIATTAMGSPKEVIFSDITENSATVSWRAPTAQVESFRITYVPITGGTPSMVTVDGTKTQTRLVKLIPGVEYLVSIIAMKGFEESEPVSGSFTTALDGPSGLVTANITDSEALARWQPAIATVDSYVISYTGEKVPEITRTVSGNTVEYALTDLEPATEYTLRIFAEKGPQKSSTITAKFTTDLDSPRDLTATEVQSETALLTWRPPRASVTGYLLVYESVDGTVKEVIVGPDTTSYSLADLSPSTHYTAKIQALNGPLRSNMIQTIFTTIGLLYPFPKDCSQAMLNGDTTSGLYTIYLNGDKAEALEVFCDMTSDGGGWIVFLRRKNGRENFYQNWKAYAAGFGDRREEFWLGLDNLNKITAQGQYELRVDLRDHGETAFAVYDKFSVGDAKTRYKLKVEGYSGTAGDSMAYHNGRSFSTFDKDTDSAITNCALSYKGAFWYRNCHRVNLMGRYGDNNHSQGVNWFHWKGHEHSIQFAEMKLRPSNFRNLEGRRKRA

B1: scFv CGS-1 (scFv, V domains shown)
VH: QVQLVESGGGLVQPGGSLRLSCAVSGFTFSSYAMSWVRQAPGKGLEWVSAISGSGGSTYYADSVKGRFTISRDNSKNTLYLQMNSLRAEDTAVYYCARSLPKWGQGTLVTVSR
VL: SSELTQDPAVSVALGQTVRITCQGDSLRSYYASWYQQKPGQAPVLVTYGKNNRPSGIPDRFSGSSSGNTASLTITGAQAEDEADYYCNSSPVVLNGVVFGGGTKLTVL
- OD at 405 nm [1]: 0.07 OD 405 nm
- OD at 405 nm [2]: 0.01 OD 405 nm
